{
  "source": "patent US20230227577A1",
  "about": "(MYTHIC THERAPEUTICS, published 2023)",
  "binders": {"B1": {"name": "3HCE56 anti-DLL3 VHH (VHH)", "VHH": "QVQLQESGGGLVQAGGSLRLSCAASGRTFSVDAMGWLRQAPGKEREFVVVIDWTGGSTAYADSVKGRFTISRDNARNTVYLQMNNLKPEDTGVYYCAARERSRTAYDYWGQGTQVTVSS", "notes": "In the binning assay it was used as a periplasmic extract"}},
  "key": {"[1]": {"target": "T1, DLL3 target antigen coated on Octet SA tips (binning experiment) (Homo sapiens (Human), UniProt Q9NYJ7 27-492, Probably biotinylated for capture on streptavidin (SA) tips. The site is not stated.)", "T1 sequence": "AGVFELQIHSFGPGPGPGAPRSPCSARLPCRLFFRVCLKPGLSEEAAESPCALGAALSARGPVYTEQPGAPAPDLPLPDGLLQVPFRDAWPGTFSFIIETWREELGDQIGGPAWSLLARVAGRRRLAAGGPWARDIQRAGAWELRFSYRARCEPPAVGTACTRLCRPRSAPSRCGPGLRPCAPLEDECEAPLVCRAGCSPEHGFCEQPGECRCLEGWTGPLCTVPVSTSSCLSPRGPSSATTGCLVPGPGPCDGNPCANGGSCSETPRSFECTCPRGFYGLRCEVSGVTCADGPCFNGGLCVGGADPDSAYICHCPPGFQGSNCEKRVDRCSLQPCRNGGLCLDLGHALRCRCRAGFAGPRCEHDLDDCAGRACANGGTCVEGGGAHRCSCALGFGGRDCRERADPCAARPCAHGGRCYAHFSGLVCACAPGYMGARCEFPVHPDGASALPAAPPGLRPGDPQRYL", "assay": "Octet binning on DLL3-coated SA tips; competitor: 3HCE4", "protocol": "(§1) Antibody binning experiments were carried out for 5 anti-DLL3 VHHs and an anti-human DLL3 BiTE (SEQ ID NO: 756). The target antigen was coated on a series of Octet SA tips. Each series of tips was first soaked in a periplasmic extract containing one specific VHH. After the response signals reached saturation, the tips were transferred to a mix of PEs containing again the first VHH (at the same concentration) plus a different VHH (termed secondary VHH) for each tip of the series. Secondary VHH that still bind the target antigen in the presence of the first VHH will show an increased response, as compared to the binding response of the first VHH alone. This was repeated for each VHH as primary VHH until all VHH were tested against each other in both directions (as primary and as secondary binder). From the response data, the bins were deduced for each VHH. 2HCE117 and 3HCE4 show competition with the human DLL3 BiTEs, whereas 3HCE56 and 3HCE87 show a partial competition."}, "[2]": {"target": "T2, recombinant human DLL3 protein (human, UniProt Q9NYJ7 27-492, limits assumed)", "T2 construct": "also called rhu DLL3; human biotinylated DLL3", "T2 sequence (looked up)": "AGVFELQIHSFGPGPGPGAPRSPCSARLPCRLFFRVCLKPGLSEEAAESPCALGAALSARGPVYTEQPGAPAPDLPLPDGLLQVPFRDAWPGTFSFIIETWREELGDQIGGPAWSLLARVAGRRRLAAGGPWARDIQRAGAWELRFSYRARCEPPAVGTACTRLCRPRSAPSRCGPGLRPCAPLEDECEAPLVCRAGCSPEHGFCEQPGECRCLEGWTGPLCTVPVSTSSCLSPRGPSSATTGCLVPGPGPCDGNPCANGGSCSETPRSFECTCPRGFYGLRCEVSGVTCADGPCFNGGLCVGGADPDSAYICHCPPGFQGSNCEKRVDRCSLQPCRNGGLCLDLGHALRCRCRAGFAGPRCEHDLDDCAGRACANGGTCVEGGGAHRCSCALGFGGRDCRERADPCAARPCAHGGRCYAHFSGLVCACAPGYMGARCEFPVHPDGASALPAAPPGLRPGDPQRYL", "assay": "Fortebio Octet Red, DLL3 immobilised on tips, dilution series of the VHH, 1:1 binding model; KD error 1.90E-10; Full R2 0.9862", "protocol": "(§2) Additional experiments were carried out to further characterize the binding properties of the anti-DLL3 constructs. Binding properties tested include dissociation constant (KD), off-rate (koff), binding to DLL3 protein by ELISA and binding to CHO cells expressing human, cyno or mouse DLL3. To obtain off-rate (koff), human biotinylated DLL3 was immobilized on Octet SA tips, and cynomolgus or mouse DLL3 was immobilized on Octet AR2G tips. For each DLL3 protein, the binding to a dilution series of each anti-DLL3 construct was measured using Fortebio Octet Red. The dissociation constant (KD), off-rate (koff) and other kinetic parameters for each anti-DLL3 construct were calculated using a 1:1 binding model. In addition, binding of these anti-DLL3 constructs to CHO cells expressing human, cyno or mouse DLL3 protein was analyzed using flow cytometry (FACS)."}, "[3]": {"target": "T1, DLL3 target antigen coated on Octet SA …", "assay": "Octet binning on DLL3-coated SA tips; competitor: 2HCE117", "protocol": "as §1"}, "DLL3 (ELISA DLL3)": {"target": "T3, DLL3 (ELISA DLL3)", "T3 construct": "also called DLL3 protein in ELISA", "T3 chain": "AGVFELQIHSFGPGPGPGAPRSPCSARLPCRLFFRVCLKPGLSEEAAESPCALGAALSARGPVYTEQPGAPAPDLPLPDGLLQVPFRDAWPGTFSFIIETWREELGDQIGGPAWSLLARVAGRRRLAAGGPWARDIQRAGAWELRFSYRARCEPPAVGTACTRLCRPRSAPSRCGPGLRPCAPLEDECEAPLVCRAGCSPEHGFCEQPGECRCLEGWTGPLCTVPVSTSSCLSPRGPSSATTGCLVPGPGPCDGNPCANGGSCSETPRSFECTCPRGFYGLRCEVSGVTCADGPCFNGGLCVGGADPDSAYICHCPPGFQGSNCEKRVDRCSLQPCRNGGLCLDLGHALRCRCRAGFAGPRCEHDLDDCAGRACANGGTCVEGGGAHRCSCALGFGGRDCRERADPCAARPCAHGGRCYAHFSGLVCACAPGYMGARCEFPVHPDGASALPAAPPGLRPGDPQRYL", "assay": "ELISA, ratio of the signal on DLL3 to the signal on the control"}, "[4]": {"target": "T2, recombinant human DLL3 protein", "assay": "Fortebio Octet Red, DLL3 immobilised on tips, dilution series of the VHH, 1:1 binding model; koff error 4.12E-06; Full R2 0.9862", "protocol": "as §2"}, "mouse DLL3 on CHO cells": {"target": "T4, mouse DLL3 on CHO cells (mouse, UniProt O88516 33-592)", "T4 construct": "whole, on cells; also called CHO cells expressing mouse DLL3", "T4 sequence (looked up)": "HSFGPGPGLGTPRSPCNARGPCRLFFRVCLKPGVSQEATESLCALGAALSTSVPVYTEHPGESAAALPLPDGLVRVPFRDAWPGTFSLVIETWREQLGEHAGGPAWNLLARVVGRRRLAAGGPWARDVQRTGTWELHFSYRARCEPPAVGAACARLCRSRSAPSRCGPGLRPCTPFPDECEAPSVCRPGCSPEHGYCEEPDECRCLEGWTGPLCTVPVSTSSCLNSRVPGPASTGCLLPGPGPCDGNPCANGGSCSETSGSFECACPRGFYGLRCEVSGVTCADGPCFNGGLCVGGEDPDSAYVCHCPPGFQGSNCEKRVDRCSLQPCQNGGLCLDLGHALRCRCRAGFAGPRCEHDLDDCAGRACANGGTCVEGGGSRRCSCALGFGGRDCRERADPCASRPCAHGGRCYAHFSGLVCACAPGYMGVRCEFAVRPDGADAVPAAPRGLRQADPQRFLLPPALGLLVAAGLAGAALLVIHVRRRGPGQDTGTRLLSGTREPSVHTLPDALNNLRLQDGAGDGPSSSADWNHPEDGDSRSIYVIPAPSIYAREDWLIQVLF", "assay": "flow cytometry (FACS) on CHO cells expressing mouse DLL3", "protocol": "as §2"}, "[5]": {"target": "T1, DLL3 target antigen coated on Octet SA …", "assay": "Octet binning on DLL3-coated SA tips; competitor: 2HCE27", "protocol": "as §1"}, "[6]": {"target": "T1, DLL3 target antigen coated on Octet SA …", "assay": "Octet binning on DLL3-coated SA tips; competitor: 3HCE56", "protocol": "as §1"}, "[7]": {"target": "T2, recombinant human DLL3 protein", "assay": "Fortebio Octet Red, DLL3 immobilised on tips, dilution series of the VHH, 1:1 binding model; kon error 5.82E+02; Full R2 0.9862", "protocol": "as §2"}, "[8]": {"target": "T1, DLL3 target antigen coated on Octet SA …", "assay": "Octet binning on DLL3-coated SA tips; competitor: 3HCE87", "protocol": "as §1"}, "[9]": {"target": "T1, DLL3 target antigen coated on Octet SA …", "assay": "Octet binning on DLL3-coated SA tips; competitor: DLL3 BiTEs", "protocol": "as §1"}, "mouse DLL3 protein": {"target": "T5, mouse DLL3 protein (mouse, UniProt O88516 33-490, limits assumed)", "T5 construct": "also called murine DLL3", "T5 sequence (looked up)": "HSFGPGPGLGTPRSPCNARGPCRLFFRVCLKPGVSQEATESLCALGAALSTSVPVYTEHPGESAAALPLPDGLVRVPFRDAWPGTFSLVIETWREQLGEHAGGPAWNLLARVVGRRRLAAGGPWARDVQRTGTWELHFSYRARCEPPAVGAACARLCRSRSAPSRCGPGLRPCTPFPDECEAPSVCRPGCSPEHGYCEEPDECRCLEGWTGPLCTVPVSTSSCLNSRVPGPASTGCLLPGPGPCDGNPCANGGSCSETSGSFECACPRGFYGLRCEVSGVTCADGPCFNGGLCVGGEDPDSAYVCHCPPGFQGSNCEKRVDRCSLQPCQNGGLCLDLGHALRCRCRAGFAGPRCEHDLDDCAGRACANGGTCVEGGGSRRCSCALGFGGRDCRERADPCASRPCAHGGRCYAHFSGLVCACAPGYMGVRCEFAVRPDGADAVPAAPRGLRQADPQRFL", "assay": "Octet (DLL3 on AR2G tips), ELISA and FACS; values only in FIG. 3"}},
  "data": [
    {"binder": "B1", "values": [
      {"measurement": "binning response (unit not given)", "setting": "[1]", "value": -79.6},
      {"measurement": "Kd", "setting": "[2]", "value": 21.3, "unit": "nM"},
      {"measurement": "binning response (unit not given)", "setting": "[3]", "value": 1110},
      {"measurement": "DLL3 / control", "setting": "DLL3 (ELISA DLL3)", "value": 18.5},
      {"measurement": "koff", "setting": "[4]", "value": 0.00146, "unit": "s⁻¹"},
      {"measurement": "binding result", "setting": "mouse DLL3 on CHO cells", "value": "binds"},
      {"measurement": "binning response (unit not given)", "setting": "[5]", "value": -3.58},
      {"measurement": "binning response (unit not given)", "setting": "[6]", "value": 0},
      {"measurement": "kon", "setting": "[7]", "value": 68500, "unit": "M⁻¹ s⁻¹"},
      {"measurement": "binning response (unit not given)", "setting": "[8]", "value": -99.1},
      {"measurement": "binning response (unit not given)", "setting": "[9]", "value": 44.1},
      {"measurement": "binding result", "setting": "mouse DLL3 protein", "value": "binds"}
    ]}
  ]
}
